Results published in patent US20080118512A1 (DELENEX THERAPEUTICS, published 2008).
Residue numbers refer to the chain shown, from its start.

T1: human ALK epitope peptide (amino acids 391-406 of the ALK protein) (human)
T1 construct: In the yeast two-hybrid screen it was a C-terminal fusion to LexA; also called Alk LBD peptide; Alk LBD
T1 peptide: GRIGRPDNPFRVALEY

B1: 43.2 (scFv)
scFv (VL-linker-VH): QSVLTQPPSVSAAPGQKVTISCSGSTSNIGDNYVSWYQQLPGTAPQLLIYDNTKRPSGIPDRFSGSKSGTSATLGITGLQTGDEADYYCATWDNDKWGVVFGGGTKLEVLGGGGGSGGGGSGGGGSSGGGSEVQLVESGGGLVQPGGSLRLSCAASGFTFSSYAMSWVRQAPGKGLEWVSAIRTNSKEYYADSVKGRFTISRDNSKNTLYLQMNSLRAEDTAVYYCARDAWLDVLSDGFDYWGQGTLVTVSS
notes: One of the seven improved scFvs (group m4); The full chain is assembled from ESBA521 with its VH CDR2 exchanged
B2: 2.11 (scFv)
scFv (VL-linker-VH): QSVLTQPPSVSAAPGQKVTISCSGSTSNIGDNYVSWYQQLPGTAPQLLIYDNTKRPSGIPDRFSGSKSGTSATLGITGLQTGDEADYYCATWDNDKWGVVFGGGTKLEVLGGGGGSGGGGSGGGGSSGGGSEVQLVESGGGLVQPGGSLRLSCAASGFTFSSYAMSWVRQAPGKGLEWVSAIRTDSKEQYYADSVKGRFTISRDNSKNTLYLQMNSLRAEDTAVYYCARDAWLDVLSDGFDYWGQGTLVTVSS
notes: One of the seven improved scFvs (group m4); The full chain is assembled from ESBA521 with its VH CDR2 exchanged; also called scFv 2.11
B3: 4.12 (scFv)
scFv (VL-linker-VH): B2 scFv (VL-linker-VH) with R183N, D185R, S186G, K187Q, E188N, Q189E
notes: as for B1
B4: 33.11 (scFv)
scFv (VL-linker-VH): B2 scFv (VL-linker-VH) with R183N, D185G, S186G, K187G, E188S, Q189T
notes: One of the seven improved scFvs (group m4); The full chain is assembled from ESBA521 with its VH CDR2 exchanged; also called scFv 33.11
B5: 100.2 (scFv)
scFv (VL-linker-VH): B2 scFv (VL-linker-VH) with R183K, S186G, K187N, E188H, Q189K
notes: as for B1
B6: 265.1 (scFv)
scFv (VL-linker-VH): B2 scFv (VL-linker-VH) with R183N, T184M, D185K, S186G, K187N, E188D, Q189R
notes: as for B1

Biological target: T1, human ALK epitope peptide (amino acids …)
Assay: ELISA; the coated antigen is not named on the sheet or in the legend, taken as the ALK epitope peptide

Binding result, binds:
B1
B2
B3
B4
B5
B6
